Assay results published in paper PMC4790447.

B1: wild-type human ventricular regulatory light chain, dephosphorylated (mock phosphorylation reaction) (natural protein)
chain: MAPKKAKKRAGGANSNVFSMFEQTQIQEFKEAFTIMDQNRDGFIDKNDLRDTFAALGRVNVKNEEIDEMIKEAPGPINFTVFLTMFGEKLKGADPEETILNAFKVFDPEGKGVLKADYVREMLTTQAERFSKEEVDQMFAAFPPDVTGNLDYKNLVHIITHGEEKD
B2: R58Q human ventricular regulatory light chain, phosphorylated by MLCK (natural protein)
chain: MAPKKAKKRAGGANSNVFSMFEQTQIQEFKEAFTIMDQNRDGFIDKNDLRDTFAALGQVNVKNEEIDEMIKEAPGPINFTVFLTMFGEKLKGADPEETILNAFKVFDPEGKGVLKADYVREMLTTQAERFSKEEVDQMFAAFPPDVTGNLDYKNLVHIITHGEEKD
modifications: phosphoserine at 15 (87.4 ± 0.8% phosphorylated; full phosphorylation never accomplished)
B3: wild-type human ventricular regulatory light chain, phosphorylated by MLCK (natural protein)
chain: MAPKKAKKRAGGANSNVFSMFEQTQIQEFKEAFTIMDQNRDGFIDKNDLRDTFAALGRVNVKNEEIDEMIKEAPGPINFTVFLTMFGEKLKGADPEETILNAFKVFDPEGKGVLKADYVREMLTTQAERFSKEEVDQMFAAFPPDVTGNLDYKNLVHIITHGEEKD
modifications: phosphoserine at 15 (95.7 ± 3.6% phosphorylated)
B4: N47K human ventricular regulatory light chain, dephosphorylated (mock phosphorylation reaction) (natural protein)
chain: MAPKKAKKRAGGANSNVFSMFEQTQIQEFKEAFTIMDQNRDGFIDKKDLRDTFAALGRVNVKNEEIDEMIKEAPGPINFTVFLTMFGEKLKGADPEETILNAFKVFDPEGKGVLKADYVREMLTTQAERFSKEEVDQMFAAFPPDVTGNLDYKNLVHIITHGEEKD
B5: R58Q human ventricular regulatory light chain, dephosphorylated (mock phosphorylation reaction) (natural protein)
chain: MAPKKAKKRAGGANSNVFSMFEQTQIQEFKEAFTIMDQNRDGFIDKNDLRDTFAALGQVNVKNEEIDEMIKEAPGPINFTVFLTMFGEKLKGADPEETILNAFKVFDPEGKGVLKADYVREMLTTQAERFSKEEVDQMFAAFPPDVTGNLDYKNLVHIITHGEEKD
B6: N47K human ventricular regulatory light chain, phosphorylated by MLCK (natural protein)
chain: MAPKKAKKRAGGANSNVFSMFEQTQIQEFKEAFTIMDQNRDGFIDKKDLRDTFAALGRVNVKNEEIDEMIKEAPGPINFTVFLTMFGEKLKGADPEETILNAFKVFDPEGKGVLKADYVREMLTTQAERFSKEEVDQMFAAFPPDVTGNLDYKNLVHIITHGEEKD
modifications: phosphoserine at 15 (98.4 ± 1.6% phosphorylated)

The binders below were run against RLC-depleted porcine cardiac β-myosin (porcine) (UniProt P79293) (assay: co-sedimentation).

Binder	percent reconstitution (densitometry)
B1	108%
B2	107%
B3	109%
B4	106%
B5	97.8%
B6	96.2%
